Reference: FireProtDB (doi:10.1021/bi0268697)
Values joined by “and” are separate entries in the source; they are usually repeats but may differ in a detail not shown here. Equal entries are not always repeated.

B1: Barstar, P11540 (parent)
chain: MKKAVINGEQIRSISDLHQTLKKELALPEYYGENLDALWDCLTGWVEYPLVLEWRQFEQSKQLTENGAESVLQVFREAKAEGCDITIILS

Variants of: B1
Conditions: Bacillus amyloliquefaciens; pH 8; 25 °C; Urea; CD; Tris 20 mM; reversible: yes; structure 1BTA; whole UniProt chain shown

Variant	denaturant midpoint (higher = more stable)	unfolding free energy
W39F W45F S13T C41A	3.4 M and 3.5 M	4.5 kcal/mol
W39F W45F C41A C83A L63C	3.3 M	4 kcal/mol
W39F W45F C41A C83A A26C	3.5 M and 3.4 M	4.4 kcal/mol and 4.3 kcal/mol
W39F W45F C83A	3.3 M and 3.7 M	4.2 kcal/mol and 4.7 kcal/mol
